US20250327097A1, “ORGANISMS PRODUCING LESS CROTONIC ACID” (Global Bioenergies, priority 2021, published 2025)
Changes are numbered by the printed parent chain. In names and notes the source's numbering stands.

B1: I283T-N285P-N287T-Q290E-S322T-N388M-K394R-C430A-i430aI-L432F-L434W-S436N-dG462 (protein)
chain: MFLKSLREQINLLKRQGDLRIINRPVDSYLEAAAIIRRSTETKAPVPLMTNIKGYPGCSIVGGLAALSSNPEYPLSRVAMSLGLSTTASAQSIVQYLIDGLKKTPYLPVEIDSNSAPCKQNILRGEDASLAHFPIPQVHQHDGNRYVNTWGVFIVESPDGQWCNWSIQRVQYLNDRQMIALVFPSQHISDIWEEWVKIGKPMPYALVQGCEPIVPYIAGLPLLERNVNEAEYIGALYGKGIEVVKCETHDLRVPASSEVVIEGYFAITREGVEGPFGEFAGYTPPETSLEPILSITAISWQDDPIWPVVAEGKPVDEYHTCTGIGDAAAIQNVLLTANLPVSFVWVPLYSACHLMIVSINRHWRQTHPDLTSEQLTKKVGDVIHQTRMSIKLPRIVVLDDDVDPADTESLLWALATRIHPERKRYFYESAIFPWLNCYSEEERHNRKGKRVIIDALLPENHGAISSFDYAYPDDIKQRVLMHWETDFSHD
B2: I283T-N285P-N287T-Q290E-S322T-N388M-K394R-C430A-L432F-L434W-S436N-i444aE-dG462 (protein)
chain: B1 chain
B3: I283T-N285P-N287T-Q290E-S322T-N388M-K394R-C430A-L432F-L434W-S436N-i444aN-dG462 (protein)
chain: B1 chain
B4: I283T-N285P-N287T-Q290E-S322T-N388M-K394R-C430A-L432F-L434W-S436N-i445aQ-dG462 (protein)
chain: B1 chain
B5: V382L-N388M-K394R-C430N-L432F-L434W-S436N (protein)
chain: B1 chain with T283I, P285N, T287N, E290Q, T322S, V382L, A430N
B6: I283T-N285P-N287T-Q290E-S322T-N388M-K394R-C430A-L432F-L434W-S436N-i443aV-dG462 (protein)
chain: B1 chain
B7: I283T-N285P-N287T-Q290E-S322T-N388M-K394R-C430A-L432F-L434W-S436N-i447aP-dG462 (protein)
chain: B1 chain
B8: I283T-N285P-N287T-Q290E-S322T-N388M-K394R-C430A-L432F-L434W-S436N-i444aG-dG462 (protein)
chain: B1 chain
B9: I283T-N285P-N287T-Q290E-S322T-N388M-K394R-C430A-L432F-L434W-S436N-i443aR-dG462 (protein)
chain: B1 chain
B10: I283T-N285P-N287T-Q290E-S322T-N388M-K394R-C430A-L432F-L434W-S436N-i444aT-dG462 (protein)
chain: B1 chain
B11: I283T-N285P-N287T-Q290E-S322T-N388M-K394R-C430A-L432F-L434W-S436N-i444aH-dG462 (protein)
chain: B1 chain
B12: I283T-N285P-N287T-Q290E-S322T-N388M-K394R-C430A-L432F-L434W-S436N-i444aS-dG462 (protein)
chain: B1 chain
B13: I283T-N285P-N287T-Q290E-S322T-N388M-K394R-C430A-i431aN-L432F-L434W-S436N-dG462 (protein)
chain: B1 chain
B14: I283T-N285P-N287T-Q290E-S322T-N388M-K394R-C430A-i430aQ-L432F-L434W-S436N-dG462 (protein)
chain: B1 chain
B15: I283T-N285P-N287T-Q290E-S322T-N388M-K394R-C430A-L432F-L434W-S436N-i444aK-dG462 (protein)
chain: B1 chain
B16: I283T-N285P-N287T-Q290E-S322T-N388M-K394R-C430A-L432F-L434W-S436N-i444aP-dG462 (protein)
chain: B1 chain
B17: I283T-N285P-N287T-Q290E-S322T-N388M-K394R-E421F-C430A-i430aG-L432F-L434W-S436N-dG462 (protein)
chain: B1 chain with E421F
B18: I283T-N285P-N287T-Q290E-S322T-N388M-K394R-C430A-L432F-L434W-S436N-i447aL-dG462 (protein)
chain: B1 chain
B19: I283T-N285P-N287T-Q290E-S322T-N388M-K394R-C430A-L432F-L434W-S436N-i449aS-dG462 (protein)
chain: B1 chain
B20: I283T-N285P-N287T-Q290E-S322T-N388M-K394R-C430A-L432F-L434W-S436N-i448aS-dG462 (protein)
chain: B1 chain
B21: I283T-N285P-N287T-Q290E-S322T-N388M-K394R-C430A-L432F-L434W-S436N-i447aY-dG462 (protein)
chain: B1 chain
B22: I283T-N285P-N287T-Q290E-S322T-N388M-K394R-C430A-i431aL-L432F-L434W-S436N-dG462 (protein)
chain: B1 chain
B23: L223Y-I283T-N285P-N287T-Q290E-S322T-N388M-K394R-E421F-C430A-L432F-L434W-S436N-dG462 (protein)
chain: B1 chain with L223Y, E421F
B24: I283T-N285P-N287T-Q290E-S322T-N388M-K394R-C430A-i431aG-L432F-L434W-S436N-dG462 (protein)
chain: B1 chain
B25: I283T-N285P-N287T-Q290E-S322T-N388M-K394R-C430A-L432F-L434W-S436N-i443aT-dG462 (protein)
chain: B1 chain
B26: I283T-N285P-N287T-Q290E-S322T-N388M-K394R-C430A-L432F-L434W-S436N-i444aV-dG462 (protein)
chain: B1 chain
B27: I283T-N285P-N287T-Q290E-S322T-N388M-K394R-C430A-L432F-L434W-S436N-i447aK-dG462 (protein)
chain: B1 chain
B28: I283T-N285P-N287T-Q290E-S322T-N388M-K394R-C430A-L432F-L434W-S436N-i444aR-dG462 (protein)
chain: B1 chain
B29: V382A-N388M-K394R-C430N-L432F-L434W-S436N (protein)
chain: B1 chain with T283I, P285N, T287N, E290Q, T322S, V382A, A430N
B30: I283T-N285P-N287T-Q290E-S322T-N388M-K394R-C430A-L432F-L434W-S436N-i438aD-dG462 (protein)
chain: B1 chain
B31: I283T-N285P-N287T-Q290E-S322T-N388M-K394R-C430A-i430aH-L432F-L434W-S436N-dG462 (protein)
chain: B1 chain
B32: I283T-N285P-N287T-Q290E-S322T-N388M-K394R-C430A-L432F-L434W-S436N-i444aL-dG462 (protein)
chain: B1 chain
B33: I283T-N285P-N287T-Q290E-S322T-N388M-K394R-C430A-L432F-L434W-S436N-i443aL-dG462 (protein)
chain: B1 chain

System: 3-methylcrotonic acid
Assay type: biochemical, Yersinia frederiksenii
Parameters: key: “+” representing a low increase in activity; “++++” representing a high increase in activity

| Molecule | Activity relative to WT |
| --- | --- |
| B1 | ++++ |
| B2 | ++++ |
| B3 | ++++ |
| B4 | ++++ |
| B5 | + |
| B6 | ++++ |
| B7 | ++++ |
| B8 | ++++ |
| B9 | ++++ |
| B10 | ++++ |
| B11 | ++++ |
| B12 | ++++ |
| B13 | ++++ |
| B14 | ++++ |
| B15 | ++++ |
| B16 | ++++ |
| B17 | ++++ |

| Molecule | Activity relative to WT |
| --- | --- |
| B18 | ++++ |
| B19 | ++++ |
| B20 | ++++ |
| B21 | ++++ |
| B22 | ++++ |
| B23 | ++++ |
| B24 | ++++ |
| B25 | ++++ |
| B26 | ++++ |
| B27 | ++++ |
| B28 | ++++ |
| B29 | + |
| B30 | ++++ |
| B31 | ++++ |
| B32 | ++++ |
| B33 | ++++ |
